This note sets out measurements from paper PMC11275975, “Structural basis for transcription activation through cooperative recruitment of MntR” (Research Square, 2024).

The series deals with the molecule itself. Briefly: mass photometry; MntR alone, in the presence of 1 mM Mn2+; single peak; monomers to dimer.

B1: manganese transport regulator (MntR) from B. subtilis, wild type (natural protein)
chain: MTTPSMEDYIEQIYMLIEEKGYARVSDIAEALAVHPSSVTKMVQKLDKDEYLIYEKYRGLVLTSKGKKIGKRLVYRHELLEQFLRIIGVDEEKIYNDVEGIEHHLSWNSIDRIGDLVQYFEEDDARKKDLKSIQKKTEHHNQ
notes: MntR, manganese transport regulator, Bacillus subtilis; dimer of 142-residue subunits; the cryo-EM maps show residues 3-142; Expressed from the pSMT3 vector as a His6-SUMO fusion; the tag was cut off with ULP-1; Assayed with 1 mM Mn2+ (two Mn2+ ions per subunit); also called WT MntR; MntR2 (dimer); source: E. coli BL21(DE3)NiCo, purified (TALON, ULP-1 cleavage, Ni-NTA)
On to B1, for which the stoichiometry N (commonly the number of molecules, sites or subunits per partner or assembly) was 2.
